What all share (test): cell-based or functional assay
Experiment [1] addresses RSV-F of RSV subtype A clinical isolate A1997/12-35 (respiratory syncytial virus subtype A, clinical isolate A1997/12-35).
For experiment [2], the target named is RSV-F of RSV subtype A clinical isolate A1998/12-21 (respiratory syncytial virus subtype A, clinical isolate A1998/12-21).
The target of experiment [3] is RSV-F of RSV subtype A clinical isolate A1998/3-2 (respiratory syncytial virus subtype A, clinical isolate A1998/3-2).
The target of experiment [4] is RSV-F of RSV subtype A clinical isolate A2000/3-4 (respiratory syncytial virus subtype A, clinical isolate A2000/3-4).
The target in experiment [5] is RSV-F of RSV subtype A clinical isolate A2001/2-20 (respiratory syncytial virus subtype A, clinical isolate A2001/2-20).
In experiment [6] the target is RSV-F of RSV subtype A clinical isolate A2001/3-12 (respiratory syncytial virus subtype A, clinical isolate A2001/3-12).
The target in experiment [7] is RSV-F of RSV subtype A strain A2 (1540) (respiratory syncytial virus subtype A, strain A2 (1540)) (UniProt P03420).
Experiment [8] deals with RSV-F of RSV subtype A strain Long (respiratory syncytial virus subtype A, strain Long) (UniProt P12568).
Experiment [9] addresses RSV-F of RSV subtype B strain 1400 (respiratory syncytial virus subtype B, strain 1400).
The target in experiment [10] is RSV-F of RSV subtype B strain 18537 (respiratory syncytial virus subtype B, strain 18537) (UniProt P13843).
Experiment [11] has as its target RSV-F of RSV subtype B strain 1A2 (respiratory syncytial virus subtype B, strain 1A2).
The target in experiment [12] is RSV-F of RSV subtype B strain 9320 (respiratory syncytial virus subtype B, strain 9320).

Chain of Control III (AM-22) (antibody) (VH): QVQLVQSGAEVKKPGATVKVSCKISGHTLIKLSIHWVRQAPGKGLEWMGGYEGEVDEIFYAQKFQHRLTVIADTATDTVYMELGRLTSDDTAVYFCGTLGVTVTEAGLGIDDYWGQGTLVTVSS
Chain of Control III (AM-22) (antibody) (VL): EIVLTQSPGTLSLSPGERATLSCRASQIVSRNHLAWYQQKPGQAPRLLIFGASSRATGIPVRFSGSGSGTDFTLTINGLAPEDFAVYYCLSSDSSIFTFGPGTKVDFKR
Chain of RSV-F of RSV subtype A strain Long (respiratory syncytial virus subtype A, strain Long) (P12568 26-574): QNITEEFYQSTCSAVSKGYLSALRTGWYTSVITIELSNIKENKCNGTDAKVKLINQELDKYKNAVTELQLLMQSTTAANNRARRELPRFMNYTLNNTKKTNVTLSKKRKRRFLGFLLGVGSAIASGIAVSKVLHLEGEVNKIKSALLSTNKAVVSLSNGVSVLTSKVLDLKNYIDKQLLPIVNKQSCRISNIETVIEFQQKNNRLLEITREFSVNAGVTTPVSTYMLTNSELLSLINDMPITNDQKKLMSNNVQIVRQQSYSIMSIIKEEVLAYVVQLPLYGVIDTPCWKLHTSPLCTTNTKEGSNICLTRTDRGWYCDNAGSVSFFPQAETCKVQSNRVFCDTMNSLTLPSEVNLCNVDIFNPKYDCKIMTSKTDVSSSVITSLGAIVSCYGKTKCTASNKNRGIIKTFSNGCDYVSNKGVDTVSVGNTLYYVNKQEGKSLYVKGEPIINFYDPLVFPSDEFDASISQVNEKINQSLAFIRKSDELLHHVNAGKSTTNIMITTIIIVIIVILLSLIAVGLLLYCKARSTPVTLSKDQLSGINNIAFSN
Chain of RSV-F of RSV subtype A strain A2 (1540) (respiratory syncytial virus subtype A, strain A2 (1540)) (P03420 26-574): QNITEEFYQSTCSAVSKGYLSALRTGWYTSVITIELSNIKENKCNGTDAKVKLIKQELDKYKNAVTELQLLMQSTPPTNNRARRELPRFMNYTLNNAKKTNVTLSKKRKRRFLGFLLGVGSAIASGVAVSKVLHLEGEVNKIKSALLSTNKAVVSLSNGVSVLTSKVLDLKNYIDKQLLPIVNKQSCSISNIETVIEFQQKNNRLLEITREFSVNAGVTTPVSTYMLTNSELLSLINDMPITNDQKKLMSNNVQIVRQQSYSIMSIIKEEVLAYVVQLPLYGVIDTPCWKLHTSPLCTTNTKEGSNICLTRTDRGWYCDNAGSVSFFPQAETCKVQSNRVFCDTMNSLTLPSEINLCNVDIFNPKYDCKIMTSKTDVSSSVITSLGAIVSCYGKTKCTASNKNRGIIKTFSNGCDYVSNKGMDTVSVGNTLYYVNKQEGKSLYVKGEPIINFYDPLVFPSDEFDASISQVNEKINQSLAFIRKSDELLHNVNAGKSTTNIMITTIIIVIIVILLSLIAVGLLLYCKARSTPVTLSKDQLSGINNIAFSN
Chain of RSV-F of RSV subtype B strain 18537 (respiratory syncytial virus subtype B, strain 18537) (P13843 26-574): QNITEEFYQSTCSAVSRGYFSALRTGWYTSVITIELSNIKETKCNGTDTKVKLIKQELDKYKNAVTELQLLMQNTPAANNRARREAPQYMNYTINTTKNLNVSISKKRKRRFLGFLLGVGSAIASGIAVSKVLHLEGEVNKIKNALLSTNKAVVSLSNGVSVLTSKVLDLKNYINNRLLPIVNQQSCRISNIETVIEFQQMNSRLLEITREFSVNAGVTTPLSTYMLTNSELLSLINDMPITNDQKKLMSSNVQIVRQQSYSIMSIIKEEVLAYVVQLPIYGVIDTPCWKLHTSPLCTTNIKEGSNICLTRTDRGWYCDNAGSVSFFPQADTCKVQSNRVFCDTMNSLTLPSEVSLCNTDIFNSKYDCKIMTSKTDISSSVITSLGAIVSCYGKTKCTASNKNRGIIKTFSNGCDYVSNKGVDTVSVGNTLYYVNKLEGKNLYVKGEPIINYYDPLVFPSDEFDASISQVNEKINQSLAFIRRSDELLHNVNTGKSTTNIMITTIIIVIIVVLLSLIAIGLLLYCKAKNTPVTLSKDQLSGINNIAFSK

With Control III (AM-22) (antibody), the IC50 (pM), RSV micro-neutralization, clinical isolate is 20 pM in experiment [1]; 43 pM in experiment [2]; 31 pM in [3]; 55 pM in experiment [4]; 72 pM in [5]; 60 pM in experiment [6]. The IC50 (pM), RSV micro-neutralization, A/A2 in [7] stood at 91 pM. In experiment [8], the IC50 (pM), RSV micro-neutralization, A/Long stood at 86 pM. The same substance came in with an IC50 (pM), RSV micro-neutralization, B/1400 in [9] of 190 pM. The IC50 (pM), RSV micro-neutralization, B/18537 in experiment [10] is 660 pM. For the same substance, the IC50 (pM), RSV micro-neutralization, B/1A2 in experiment [11] stood at 580 pM. Further, the IC50 (pM), RSV micro-neutralization, B/9320 in experiment [12] worked out at 2510 pM.

Source of the values: patent US20140271653A1.
